This is an account of results in publication PMC7337899, “E. coli Rep helicase and RecA recombinase unwind G4 DNA and are important for resistance to G4-stabilizing ligands” (Nucleic Acids Research, 2020).

The Km is the concentration of substrate that gives half-maximal velocity.

Substrate in the series: Nc1ncnc2c1ncn2[C@@H]1O[C@H](COP(=O)(O)OP(=O)(O)OP(=O)(O)O)[C@@H](O)[C@H]1O
The series can be described thus: purified protein. The class given is biochemical, Escherichia coli. Particulars: non-parallel (TTAGGG)4-T15 G4 DNA, 100 nM protein, 1 μM to 2 mM ATP, 50 mM KCl, 3 mM MgCl2, pH 7.5, ~23 °C.

B1: UvrD (Escherichia coli K-12) (protein)
chain: MDVSYLLDSLNDKQREAVAAPRSNLLVLAGAGSGKTRVLVHRIAWLMSVENCSPYSIMAVTFTNKAAAEMRHRIGQLMGTSQGGMWVGTFHGLAHRLLRAHHMDANLPQDFQILDSEDQLRLLKRLIKAMNLDEKQWPPRQAMWYINSQKDEGLRPHHIQSYGNPVEQTWQKVYQAYQEACDRAGLVDFAELLLRAHELWLNKPHILQHYRERFTNILVDEFQDTNNIQYAWIRLLAGDTGKVMIVGDDDQSIYGWRGAQVENIQRFLNDFPGAETIRLEQNYRSTSNILSAANALIENNNGRLGKKLWTDGADGEPISLYCAFNELDEARFVVNRIKTWQDNGGALAECAILYRSNAQSRVLEEALLQASMPYRIYGGMRFFERQEIKDALSYLRLIANRNDDAAFERVVNTPTRGIGDRTLDVVRQTSRDRQLTLWQACRELLQEKALAGRAASALQRFMELIDALAQETADMPLHVQTDRVIKDSGLRTMYEQEKGEKGQTRIENLEELVTATRQFSYNEEDEDLMPLQAFLSHAALEAGEGQADTWQDAVQLMTLHSAKGLEFPQVFIVGMEEGMFPSQMSLDEGGRLEEERRLAYVGVTRAMQKLTLTYAETRRLYGKEVYHRPSRFIGELPEECVEEVRLRATVSRPVSHQRMGTPMVENDSGYKLGQRVRHAKFGEGTIVNMEGSGEHSRLQVAFQGQGIKWLVAAYARLESV
notes: expressed in E. coli BL21(DE3) pLysS; Polymin P, ammonium sulfate, heparin and Sephacryl S-300 purification; no tag mentioned
Turning to B1, the Km came out at 42.52 ± 13.8 µM.
